To fix the notation:
B1: TPR 5TU (parent)
chain: GGAUCUUCUCGAUCUAACAAAAAAGACAAAUCUGCCACAAAGCUUGAGAGCAUCUUCGGAUGCAGAGGCGGCAGCCUUCGGUGGCGCGAUAGCGCCAACGUUCUCAACUAUGACACGCAAAACGCGUGCUCCGUUGAAUGGAGUUUAUCAUG

Fewer inactive variants are shown than the library holds.

This series covers variants of B1. Description: polymerase ribozyme fitness, log enrichment relative to wild type (log ratio); higher = more active; in vitro selection for triplet polymerase activity. The method in brief:
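Fitness measures genotype enrichment against wild-type enrichment on a logarithmic scale, with inverse-variance-weighted averaging of replicates. The logarithm is base 2, and genotypes were kept only with ≥10 input reads and ≥1 read per output in Illumina sequencing. The sequenced libraries came from one triplicate in vitro selection round, including frozen incubation at −7 °C, of PCR-built, transcribed mutant libraries of each subunit of a heterodimeric triplet polymerase ribozyme.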
As for A19U C35U, the “polymerase ribozyme fitness (log ratio)” value was -0.444. Then C96U U139A, with -3.94; and A52C U55A G74U G88U G92U C105G A107G, with no more than -4.2; and C93A U130A, with no more than -4.2. Then A40C U55A G59A A113U C123A, with -0.982.

Consider C5A U44A A73U C79U C85U G126U, for which the “polymerase ribozyme fitness (log ratio)” value was no more than -4.2. Then C96U U104G C129G, with -2.81. Turning to G48C A98G U101C U144A A147U, the “polymerase ribozyme fitness (log ratio)” value is -0.0628. Then G42A A49C C54U C95U C118U, with no more than -4.2; and A20G C57U G62C G136U, with -3.44. The result for G50C C87U reads -3.6; that for C43G C57A G59C C72A C79A A138G U145A, no more than -4.2; that for G80A C93U U102A, -3.01. On to A40U C99U G117C, for which the “polymerase ribozyme fitness (log ratio)” value was -0.515.

With A22C A29U U33C A47C U53G C95U C105A C118U, the “polymerase ribozyme fitness (log ratio)” value is no more than -4.2. The result for A26U G42C C93G A115U reads no more than -4.2. The result for G50C C51U G92U reads -2.09. The result for U33G G42A G58C A91G G100A reads no more than -4.2; that for A39U G58C G74U A91G C123G G133A U146C, no more than -4.2. A37U U78G U90C U101G U104G: the “polymerase ribozyme fitness (log ratio)” value is no more than -4.2.

Regarding C14G G59A C87U, the “polymerase ribozyme fitness (log ratio)” value was -3.82. Then C85U A107U, with -3.65. Then A66U G68C C105A, with no more than -4.2; and A20U A22U C43A G84C C108G C116G, with no more than -4.2; and A26C A41G C54U C75G G88A A107G, with no more than -4.2. Then A49C C57U, with -3.72.

With C51G C96A A147C, the “polymerase ribozyme fitness (log ratio)” value is -3.82. For A12C A66G A91U, the “polymerase ribozyme fitness (log ratio)” value is no more than -4.2. The result for C5A G81A reads 0.566. Then A37C U56A U90A C103G A121U C123U G141C, with no more than -4.2. The result for A21G A49U G50A reads -0.423; that for C85G G141C, -3.06. U7C A20U C96A C103U U109C G152U: the “polymerase ribozyme fitness (log ratio)” value was -3.42. A17C G88A A91G U148A: the “polymerase ribozyme fitness (log ratio)” value is -4.03.

Turning to C27U C93U U104A, the “polymerase ribozyme fitness (log ratio)” value was -3.11.

For C18G G94A, the “polymerase ribozyme fitness (log ratio)” value was -1.09.

In the case of G86A, the “polymerase ribozyme fitness (log ratio)” value is -0.877. The result for G11A A37C U56G G83A U145G reads -3.73.

With U45C U55A, the “polymerase ribozyme fitness (log ratio)” value was -1.08.

Consider G42C G48A C75G C96U U104A, for which the “polymerase ribozyme fitness (log ratio)” value is no more than -4.2. Then A52G U82A, with -0.467; and A12U C14A A24U U56A C85U C99U G141A, with no more than -4.2.

With A24U A28U C79G A91U A97U C116U C132U U135A, the “polymerase ribozyme fitness (log ratio)” value was no more than -4.2. Take G11U U55G A60G G67A C93U: the “polymerase ribozyme fitness (log ratio)” value was no more than -4.2. The result for A16C U55A reads -1.28. Regarding U6A C57G A64G C76U C87A, the “polymerase ribozyme fitness (log ratio)” value is no more than -4.2.

For U45G G70A C87U U144G, the “polymerase ribozyme fitness (log ratio)” value was no more than -4.2. Turning to C35U C118U, the “polymerase ribozyme fitness (log ratio)” value is -0.573.

With C87U G133U, the “polymerase ribozyme fitness (log ratio)” value was -2.95. Then A40C G83C, with 0.449; and U53A U55G C57A, with 0.733. The result for C5U A28U C51G A52C G67A G94C reads no more than -4.2. As for A12C G34U G50U G88C A98U C125A, the “polymerase ribozyme fitness (log ratio)” value was -4.18. Then U82A C129A, with -2.19; and C75G C129U, with no more than -4.2; and U7C C38A C51G G83U G84A, with no more than -4.2. The result for C5A U45C G58U U82C G84A reads -3.97. The result for C72U C96A C105U C132U reads -1.29; that for G42C U56G U144A, no more than -4.2. C57G G58A A60G A137U: the “polymerase ribozyme fitness (log ratio)” value is -4.15. Turning to U31C U53G, the “polymerase ribozyme fitness (log ratio)” value was -0.735. The result for U7A C14A A23C C75G C85U reads no more than -4.2. Then G81A C105U, with 1.52; and A37C C116G, with -0.143; and A37U A49C C63G C87G G124U, with no more than -4.2. The result for G58U G86A U130C reads 0.803; that for A16C A52U C85G A122G G124C, no more than -4.2.

Take A24C U31C U33G U53A U78A G88U U134C: the “polymerase ribozyme fitness (log ratio)” value is no more than -4.2. The result for A3G C116U G124A A142G reads -2.6. Then C85U G92U C125A G136C, with -3.55. Then U55A G83U, with -1.69. For the variant C76U G117A, the “polymerase ribozyme fitness (log ratio)” value came to 0.649.

Regarding G50U U144G U145A, the “polymerase ribozyme fitness (log ratio)” value was 0.245. The result for C57G G94A G141C reads -0.316. With C96U U109C, the “polymerase ribozyme fitness (log ratio)” value was -3.67. The result for A29C A49U A91U C118G C149A reads no more than -4.2; that for C57A G59C G84U A107G A115U A137G C149U, no more than -4.2; that for U15G C35G G50C C96G G143U, no more than -4.2. Then U33A A41C C87A U130G A147G, with no more than -4.2. The result for C32U G59C A60C C63G C93A C99U A115G reads no more than -4.2; that for A26U C118A, -2.33.

As to C96G A142U U146A, the “polymerase ribozyme fitness (log ratio)” value is -1.97. The result for C85A G124U reads -1.9; that for C8U G83U, -3.5.

These data come from the RNAGym collection of RNA variant scans (doi:10.1073/pnas.2313332121).
